Data from patent US10294487B2, “Methods and compositions involving ALS variants with native substrate preference” (E I DU PONT DE NEMOURS AND COMPANY, priority 2012, dated 2019).

Columns and labels:
ALS [1] = conditions: cited from earlier work; for Resistance pattern, I50 fold increase: IM: imidazolinone(s); for Resistance pattern, I50 fold increase: SU: sulfonylurea(s); for Resistance pattern, I50 fold increase: IEt: imazethapyr
ALS [2] = conditions: cited from earlier work; for Kinetic parameters: Km / Kinetic parameters: kcat: pyruvate reaction
G. max ALS1 protein [3] = assay: Colorimetric ALS kinetic assay (Km, kcat) with pyruvate as substrate; format: biochemical, Glycine max
Outline: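 Recombinant soybean ALS variants, mature N-terminus from S48, His-MBP tag cleaved off; 0.8 ug enzyme per well in 25 mM potassium phosphate, 15 mM MgCl2, 0.7 mM TPP, 28 uM FAD, 0.2 mg/ml BSA, 0-100 mM pyruvate. Km and Vmax from hyperbolic fit; kcat from Vmax and protein concentration.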

G. max ALS1 protein [4] = assay: Substrate specificity ratio (Rf), pyruvate versus 2-ketobutyrate, LC-MS of reduced products; format: biochemical, Glycine max; conditions: ratio of [pyruvate] to [2-ketobutyrate] giving equal rates of acetolactate and acetohydroxybutyrate formation; 25 mM pyruvate
Outline: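 Pyruvate was held at 25 mM while 2-ketobutyrate was varied. Reactions were quenched with sodium borohydride, and the reduced acetolactate and acetohydroxybutyrate were separated on C18 with a methanol gradient and quantified by MS integration. Rf is the [pyruvate]/[2-ketobutyrate] ratio that gives equal formation rates of both products.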

Molecule	Resistance pattern, I50 fold increase: IM (ALS [1])	Resistance pattern, I50 fold increase: SU (ALS [1])	Kinetic parameters: Km (ALS [2])	Kinetic parameters: kcat (ALS [2])	other results
F590L: Site-directed mutation in S. cerevisiae ALS; position F578, 559 (protein, UniProt P07342 91-687, looked up, variant F590L) Acetolactate synthase …: GLTGGQIFNEMMSRQNVDTVFGYPGGAILPVYDAIHNSDKFNFVLPKHEQGAGHMAEGYARASGKPGVVLVTSGPGATNVVTPMADAFADGIPMVVFTGQVPTSAIGTDAFQEADVVGISRSCTKWNVMVKSVEELPLRINEAFEIATSGRPGPVLVDLPKDVTAAILRNPIPTKTTLPSNALNQLTSRAQDEFVMQSINKAADLINLAKKPVLYVGAGILNHADGPRLLKELSDRAQIPVTTTLQGLGSFDQEDPKSLDMLGMHGCATANLAVQNADLIIAVGARFDDRVTGNISKFAPEARRAAAEGRGGIIHFEVSPKNINKVVQTQIAVEGDATTNLGKMMSKIFPVKERSEWFAQINKWKKEYPYAYMEETPGSKIKPQTVIKKLSKVANDTGRHVIVTTGVGQHQMWAAQHWTWRNPHTFITSGGLGTMGYGLPAAIGAQVAKPESLVIDIDGDASFNMTLTELSSAVQAGTPVKILILNNEEQGMVTQWQSLLYEHRYSHTHQLNPDFIKLAEAMGLKGLRVKKQEELDAKLKEFVSTKGPVLLEVEVDKKVPVLPMVAGGSGLDEFINFDPEVERQQTELRHKRTGGKH	IM, 60 fold	SUs, 30-300 fold	Km, 30 % wt	kcat, 200 % wt	
A122V: Site-directed mutation in A. thaliana ALS; position A122, 103 (protein, UniProt P17597 56-670, looked up, variant A122V) Acetolactate synthase, …: SSSPSSISAVLNTTTNVTTTPSPTKPTKPETFISRFAPDQPRKGADILVEALERQGVETVFAYPGGVSMEIHQALTRSSSIRNVLPRHEQGGVFAAEGYARSSGKPGICIATSGPGATNLVSGLADALLDSVPLVAITGQVPRRMIGTDAFQETPIVEVTRSITKHNYLVMDVEDIPRIIEEAFFLATSGRPGPVLVDVPKDIQQQLAIPNWEQAMRLPGYMSRMPKPPEDSHLEQIVRLISESKKPVLYVGGGCLNSSDELGRFVELTGIPVASTLMGLGSYPCDDELSLHMLGMHGTVYANYAVEHSDLLLAFGVRFDDRVTGKLEAFASRAKIVHIDIDSAEIGKNKTPHVSVCGDVKLALQGMNKVLENRAEELKLDFGVWRNELNVQKQKFPLSFKTFGEAIPPQYAIKVLDELTDGKAIISTGVGQHQMWAAQFYNYKKPRQWLSSGGLGAMGFGLPAAIGASVANPDAIVVDIDGDGSFIMNVQELATIRVENLPVKVLLLNNQHLGMVMQWEDRFYKANRAHTFLGDPAQEDEIFPNMLLFAAACGIPAARVTKKADLREAIQTMLDTPGPYLLDVICPHQEHVLPMIPSGGTFNDVITEGDGRIKY	IMs, 1000-2000 fold	SUs, 4 fold	Km, 160 % wt	kcat, 25 % wt	Kinetic parameters: Kc for FAD (ALS [2]; cofactor activation constant, flavin adenine dinucleotide): Kc for FAD, 400 % wt; Kinetic parameters: Kc for TPP (ALS [2]; cofactor activation constant, thiamin pyrophosphate): Kc for TPP, 2000 % wt
P197S: Chemical mutagenesis of A. thaliana plants; position P197, 178 (protein, UniProt P17597 56-670, looked up, variant P197S) Acetolactate synthase, …: SSSPSSISAVLNTTTNVTTTPSPTKPTKPETFISRFAPDQPRKGADILVEALERQGVETVFAYPGGASMEIHQALTRSSSIRNVLPRHEQGGVFAAEGYARSSGKPGICIATSGPGATNLVSGLADALLDSVPLVAITGQVSRRMIGTDAFQETPIVEVTRSITKHNYLVMDVEDIPRIIEEAFFLATSGRPGPVLVDVPKDIQQQLAIPNWEQAMRLPGYMSRMPKPPEDSHLEQIVRLISESKKPVLYVGGGCLNSSDELGRFVELTGIPVASTLMGLGSYPCDDELSLHMLGMHGTVYANYAVEHSDLLLAFGVRFDDRVTGKLEAFASRAKIVHIDIDSAEIGKNKTPHVSVCGDVKLALQGMNKVLENRAEELKLDFGVWRNELNVQKQKFPLSFKTFGEAIPPQYAIKVLDELTDGKAIISTGVGQHQMWAAQFYNYKKPRQWLSSGGLGAMGFGLPAAIGASVANPDAIVVDIDGDGSFIMNVQELATIRVENLPVKVLLLNNQHLGMVMQWEDRFYKANRAHTFLGDPAQEDEIFPNMLLFAAACGIPAARVTKKADLREAIQTMLDTPGPYLLDVICPHQEHVLPMIPSGGTFNDVITEGDGRIKY					Resistance pattern, I50 fold increase: IP (ALS [1]; IP (abbreviation not defined)): IP, 2 fold; Resistance pattern, I50 fold increase: CS (ALS [1]; chlorsulfuron): CS, 1000 fold
P192S: Site-directed mutation in S. cerevisiae ALS; position P197, 178 (protein, UniProt P07342 91-687, looked up, variant P192S) Acetolactate synthase …: GLTGGQIFNEMMSRQNVDTVFGYPGGAILPVYDAIHNSDKFNFVLPKHEQGAGHMAEGYARASGKPGVVLVTSGPGATNVVTPMADAFADGIPMVVFTGQVSTSAIGTDAFQEADVVGISRSCTKWNVMVKSVEELPLRINEAFEIATSGRPGPVLVDLPKDVTAAILRNPIPTKTTLPSNALNQLTSRAQDEFVMQSINKAADLINLAKKPVLYVGAGILNHADGPRLLKELSDRAQIPVTTTLQGLGSFDQEDPKSLDMLGMHGCATANLAVQNADLIIAVGARFDDRVTGNISKFAPEARRAAAEGRGGIIHFEVSPKNINKVVQTQIAVEGDATTNLGKMMSKIFPVKERSEWFAQINKWKKEYPYAYMEETPGSKIKPQTVIKKLSKVANDTGRHVIVTTGVGQHQMWAAQHWTWRNPHTFITSGGLGTMGYGLPAAIGAQVAKPESLVIDIDGDASFNMTLTELSSAVQAGTPVKILILNNEEQGMVTQWQSLFYEHRYSHTHQLNPDFIKLAEAMGLKGLRVKKQEELDAKLKEFVSTKGPVLLEVEVDKKVPVLPMVAGGSGLDEFINFDPEVERQQTELRHKRTGGKH		SUs, 400-2000 fold	Km, 75 % wt	kcat, 25 % wt	Resistance pattern, I50 fold increase: IEt (ALS [1]): IEt, 10 fold
R199E: Site-directed mutation in A. thaliana ALS; position R199, 180 (protein, UniProt P17597 56-670, looked up, variant R199E) Acetolactate synthase, …: SSSPSSISAVLNTTTNVTTTPSPTKPTKPETFISRFAPDQPRKGADILVEALERQGVETVFAYPGGASMEIHQALTRSSSIRNVLPRHEQGGVFAAEGYARSSGKPGICIATSGPGATNLVSGLADALLDSVPLVAITGQVPREMIGTDAFQETPIVEVTRSITKHNYLVMDVEDIPRIIEEAFFLATSGRPGPVLVDVPKDIQQQLAIPNWEQAMRLPGYMSRMPKPPEDSHLEQIVRLISESKKPVLYVGGGCLNSSDELGRFVELTGIPVASTLMGLGSYPCDDELSLHMLGMHGTVYANYAVEHSDLLLAFGVRFDDRVTGKLEAFASRAKIVHIDIDSAEIGKNKTPHVSVCGDVKLALQGMNKVLENRAEELKLDFGVWRNELNVQKQKFPLSFKTFGEAIPPQYAIKVLDELTDGKAIISTGVGQHQMWAAQFYNYKKPRQWLSSGGLGAMGFGLPAAIGASVANPDAIVVDIDGDGSFIMNVQELATIRVENLPVKVLLLNNQHLGMVMQWEDRFYKANRAHTFLGDPAQEDEIFPNMLLFAAACGIPAARVTKKADLREAIQTMLDTPGPYLLDVICPHQEHVLPMIPSGGTFNDVITEGDGRIKY					Resistance pattern, I50 fold increase: IEt (ALS [1]): IEt, 50 fold; Resistance pattern, I50 fold increase: SM (ALS [1]; sulfometuron methyl): SM, 2 fold
A200V: Site-directed mutation in S. cerevisiae ALS; position A205, 186 (protein, UniProt P07342 91-687, looked up, variant A200V) Acetolactate synthase …: GLTGGQIFNEMMSRQNVDTVFGYPGGAILPVYDAIHNSDKFNFVLPKHEQGAGHMAEGYARASGKPGVVLVTSGPGATNVVTPMADAFADGIPMVVFTGQVPTSAIGTDVFQEADVVGISRSCTKWNVMVKSVEELPLRINEAFEIATSGRPGPVLVDLPKDVTAAILRNPIPTKTTLPSNALNQLTSRAQDEFVMQSINKAADLINLAKKPVLYVGAGILNHADGPRLLKELSDRAQIPVTTTLQGLGSFDQEDPKSLDMLGMHGCATANLAVQNADLIIAVGARFDDRVTGNISKFAPEARRAAAEGRGGIIHFEVSPKNINKVVQTQIAVEGDATTNLGKMMSKIFPVKERSEWFAQINKWKKEYPYAYMEETPGSKIKPQTVIKKLSKVANDTGRHVIVTTGVGQHQMWAAQHWTWRNPHTFITSGGLGTMGYGLPAAIGAQVAKPESLVIDIDGDASFNMTLTELSSAVQAGTPVKILILNNEEQGMVTQWQSLFYEHRYSHTHQLNPDFIKLAEAMGLKGLRVKKQEELDAKLKEFVSTKGPVLLEVEVDKKVPVLPMVAGGSGLDEFINFDPEVERQQTELRHKRTGGKH	IMs, 10-100 fold	SUs, 300-700 fold	100 % wt	20 % wt	
GM-ALS_F559L: Glycine Max ALS1 variant with a F→L mutation at position 559 (protein, F559L) MAATASRTTRFSSSSSHPTFPKRITRSTLPLSHQTLTKPNHALKIKCSISKPPTAAPFTKEAPTTEPFVSRFASGEPRKGADILVEALERQGVTTVFAYPGGASMEIHQALTRSAAIRNVLPRHEQGGVFAAEGYARSSGLPGVCIATSGPGATNLVSGLADALMDSVPVVAITGQVPRRMIGTDAFQETPIVEVSRSITKHNYLILDVDDIPRVVAEAFFVATSGRPGPVLIDIPKDVQQQLAVPNWDEPVNLPGYLARLPRPPAEAQLEHIVRLIMEAQKPVLYVGGGSLNSSAELRRFVELTGIPVASTLMGLGTFPIGDEYSLQMLGMHGTVYANYAVDNSDLLLAFGVRFDDRVTGKLEAFASRAKIVHIDIDSAEIGKNKQAHVSVCADLKLALKGINMILEEKGVEGKFDLGGWREEINVQKHKFPLGYKTFQDAISPQHAIEVLDELTNGDAIVSTGVGQHQMWAAQFYKYKRPRQWLTSGGLGAMGFGLPAAIGAAVANPGAVVVDIDGDGSFIMNVQELATIRVENLPVKILLLNNQHLGMVVQWEDRLYKSNRAHTYLGDPSSESEIFPNMLKFADACGIPAARVTKKEELRAAIQRMLDTPGPYLLDVIVPHQEHVLPMIPSNGSFKDVITEGDGRTRY					Km (G. max ALS1 protein [3]): 6 mM; kcat (G. max ALS1 protein [3]): 107 min⁻¹; Substrate specificity ratio (Rf) (G. max ALS1 protein [4]): 62.5
